Target: TGF-β receptors on cultured rat primary hepatic stellate cells
Experiment: cell-based or functional assay

purified recombinant NS3 protein (scNS4A-NS3 protease with trx-His-S tag) (enzyme)
expression of the Collagen(I) α1 gene in cultured rat primary hepatic stellate cells: 6 times

From patent publication US20130244253A1
